Experimental data: PMC3679036

Legend:
RhoA [1] = target: RhoA (UniProt Q9QUI0); assay: anti-RhoGDI1 co-IP from cytosolic fraction; conditions: reference: unstimulated acini; sites S96
RhoA [2] = target: RhoA (UniProt Q9QUI0); assay: anti-RhoGDI1 co-IP from acinar lysate; conditions: reference: unstimulated acini; sites S96

percent of reference (RhoA [1]) [%] | percent of reference (RhoA [2]) [%] | Substance
42 | – | RhoGDI1 (endogenous) (from UniProt Q99PT1) CCK 300 pM, 5 min
– | 37 | RhoGDI1 (endogenous) (from UniProt Q99PT1) PMA 500 nM
